{"source": "patent US20160145343A1", "about": "(UNIVERSITY OF PITTSBURGH OF THE COMMONWEALTH SYSTEM OF …, published 2016)", "binders": {"B1": {"name": "M19 (antibody, human IgG1, kappa, V domains shown)", "VH": "QVQLVESGGGLVKPGGSLRLSCAASGFIFSDYYMSWIRQAPGKGLEWVSYISSSGTTKYYADSVKGRFTISRDNAKNSLYLQMNSLRAEDTAVYYCVREDIGYCSGGSCFYYYYMDVWGKGTTVTVSS", "VL": "not shown", "notes": "Human IgG"}, "B2": {"name": "M17 (antibody, human IgG1, kappa, V domains shown)", "VH": "B1 VH", "VL": "not shown"}, "B3": {"name": "M23 (antibody, human IgG1, kappa, V domains shown)", "VH": "B1 VH with I28T, D100N, S105T, S108N", "VL": "not shown"}, "B4": {"name": "M18 (antibody, human IgG1, kappa, V domains shown)", "VH": "B1 VH", "VL": "not shown", "notes": "Human IgG"}, "B5": {"name": "M16 (antibody, human IgG1, kappa, V domains shown)", "VH": "B1 VH with I28T, D100N, I101L", "VL": "not shown", "notes": "Human IgG"}, "B6": {"name": "M14 (antibody, human IgG1, kappa, V domains shown)", "VH": "B1 VH with I28T, D100N, I101L", "VL": "not shown"}, "B7": {"name": "M8 (antibody, human IgG1, kappa, V domains shown)", "VH": "B1 VH with I28T, T56S, K58I, V97A, D100R, F110Y", "VL": "not shown"}, "B8": {"name": "M20 (antibody, human IgG1, kappa, V domains shown)", "VH": "EVQLVESGGGLVQPGGSLRLSCAASGFTFSSYWMHWVRQAPGKGLVWVSHINSDGSSTSYADSVKGRFTISRDNAKNTLYLQMNSLRAEDTAVYYCARELADWGQGTLVTVSS", "VL": "DVVMTQSPLSLPVTLGQPASISCRSSQSLVYSDGNTYLNWFQQRPGQSPRRLIYQVSNRDSGVPDRFSGSGSGTDFTLKIGRVEAEDVGVYFCMQGTHWPWTFGQGTKVEIKR", "notes": "Human IgG"}, "B9": {"name": "M22 (antibody, human IgG1, kappa, V domains shown)", "VH": "EVQLVESGGGLVQPGGSLRLSCAASGFTVSSNYMSWVRQAPGKGLEWVSVIYSGGTTYYADSVKGRFTISRHNSKNTLYLQMNSLRAEDTAVYYCARDHDPDYGGYYMDVWGKGTTVTVSS", "VL": "B8 VL", "notes": "Human IgG"}, "B10": {"name": "M21 (antibody, human IgG1, kappa, V domains shown)", "VH": "EVQLVESGGGLVQPGGSLRLSCAASGFTVSSNYMSWVRQAPGKGLEWVSVIYSGGSTYYADSVKGRFTISRDNSKNTLYLQMNSLRAEDTAVYYCARDQEHYFDGSGYYVDYWGQGTLVTVSS", "VL": "B8 VL", "notes": "Human IgG"}, "B11": {"name": "M4 (antibody, human IgG1, lambda, V domains shown)", "VH": "QLQLQESGPGLVKPSETLSLTCTVSGGSISSSSYYWGWIRQPPGKGLEWIGSIYYSGSTHYNPSLKRRVTISEDTSKNQFSLKLSSVTAADTAVYYCARGVVEVRGNHYYYYHMDAWGKGTTVTVSS", "VL": "QSVLTQPPSVSGAPGQGVTISCTGSSSNIGAGYDVHWYQQLPGSAPKFFIYGSNNRPSGVPDRFSGSKSGTSASLAITGLQAEDEADYYCQSYDSSLSGSGVFGGGTKLTVLG", "notes": "Human IgG"}, "B12": {"name": "M10 (antibody, human IgG1, kappa, V domains shown)", "VH": "B1 VH with I28T, D100N, I101L, F110Y", "VL": "not shown", "notes": "Human IgG"}, "B13": {"name": "M11 (antibody, human IgG1, kappa, V domains shown)", "VH": "B1 VH with I28T, D100N, I101L, S105T, S108N", "VL": "not shown"}, "B14": {"name": "M9 (antibody, human IgG1, kappa, V domains shown)", "VH": "B1 VH with I28T, D100N, I101L, F110Y", "VL": "not shown", "notes": "Human IgG"}, "B15": {"name": "M12 (antibody, human IgG1, kappa, V domains shown)", "VH": "B1 VH with I28T, D100N, S105T, S108N", "VL": "not shown", "notes": "Human IgG"}, "B16": {"name": "M13 (antibody, human IgG1, kappa, V domains shown)", "VH": "B1 VH with I28T, D100N, S105T, S108N", "VL": "not shown", "notes": "Human IgG"}, "B17": {"name": "M15 (antibody, human IgG1, kappa, V domains shown)", "VH": "B1 VH with I28T, D100N, I101L", "VL": "not shown", "notes": "Human IgG"}, "B18": {"name": "M6 (antibody, human IgG1, kappa, V domains shown)", "VH": "EVQLVESGGGLVQPGGSLRLSCAASGFTVSSNYMSWVRQAPGKGLEWVSVIYSGGSTYYADSVKGRFTISRDNSKNTLYLQMNSLRAEDTAVYYCARGSTNTYYYDSSGHPWGQGTMVTVSS", "VL": "not shown", "notes": "Human IgG"}, "B19": {"name": "M5 (antibody, human IgG1, kappa, V domains shown)", "VH": "B18 VH", "VL": "not shown", "notes": "Human IgG"}}, "note": "Substitutions are numbered along the chain they refer to. Where no end group is shown, it is not given here. Galβ1‑3GalNAc = TF-antigen"}
{"biological_target": "T1, 100 aa-long synthetic MUC1 peptide (…)5", "T1 construct": "also called 100-mer; vaccine 100-mer peptide", "assay": "ELISA on coated 100-mer peptide", "from_the_text": "(§1) Heavy and light chains of antibodies reactive against MUC1 were generated from plasma of individuals vaccinated with a 100 aa-long synthetic MUC1 peptide (100-mer) representing the unglycosylated tumor associated MUC1 antigen (Kimura et al., 2013, Cancer Prev. Res. (Phila.), 6:18-26). Binding of monoclonal antibodies produced by combinatorial pairing of chains was characterized by ELISA using the vaccine 100-mer peptide consisting of the following sequence ([…])₅ (SEQ ID NO: 2). Briefly, 96-well high-binding ELISA plates were coated with 50 μl of the peptide diluted in carbonate buffer at 2 μg/ml. The wells were washed then blocked with 5% fat-free milk in phosphate-buffered saline (PBS). Antibodies were diluted in 5% milk in PBS with 0.1% TWEEN 20 (PBS-T) and then added to the peptide-coated, blocked wells and incubated at 37° C. for 2 hours, after which the wells were washed. Binding of antibody was probed with an anti-human IgG goat antibody conjugated to horseradish peroxidase (HRP), and signal was detected with 3,3′,5,5′-tetramethylbenzidine (TMB) substrate, which was neutralized with an acid, then the 450 nm absorbance was read. […] Additionally, the EC₅₀ of each antibody was approximated by ELISA titration (Table 1)."}
{"binder": "B1", "binding result": "binds"}
{"binder": "B2", "binding result": "binds"}
{"binder": "B3", "binding result": "binds"}
{"binder": "B4", "binding result": "binds"}
{"biological_target": "T2, Synthetic peptide (GVTSAPDTRPAPGSTAPPAH)2", "T2 peptide": "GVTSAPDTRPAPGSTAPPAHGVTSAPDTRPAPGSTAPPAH", "assay": "ELISA on coated peptide, antibody 0.01 mg/ml, mean of 3", "from_the_text": "(§2) Selected antibodies from Table 1 were further characterized for binding to synthetic MUC1 glycopeptides that were synthesized with the GalNac or GaNac-Gal carbohydrates on various serines and threonines along the MUC1 tandem repeat. If placed within the specific epitope recognized by an antibody, the antibody would not bind that particular glycopeptide.", "units": {"ELISA absorbance at 450 nm": "absorbance"}}
{"binder": "B5", "ELISA absorbance at 450 nm": 3.3}
{"binder": "B6", "ELISA absorbance at 450 nm": 2.9}
{"binder": "B7", "ELISA absorbance at 450 nm": 3}
{"binder": "B3", "ELISA absorbance at 450 nm": 2.9}
{"binder": "B4", "ELISA absorbance at 450 nm": 3.3}
{"binder": "B8", "ELISA absorbance at 450 nm": 2.8}
{"binder": "B9", "ELISA absorbance at 450 nm": 3.1}
{"binder": "B10", "ELISA absorbance at 450 nm": 3}
{"biological_target": "T3, Synthetic peptide HGVTSAPDTRPAPGSTAPP", "T3 construct": "Unglycosylated; also called 346; MUC1 repeat", "T3 peptide": "HGVTSAPDTRPAPGSTAPP", "assay": "ELISA on coated peptide, antibody 0.01 mg/ml, mean of 3", "from_the_text": "as §2", "units": {"ELISA absorbance at 450 nm": "absorbance"}}
{"binder": "B5", "ELISA absorbance at 450 nm": 2.2}
{"binder": "B6", "ELISA absorbance at 450 nm": 2.1}
{"binder": "B7", "ELISA absorbance at 450 nm": 2.1}
{"binder": "B3", "ELISA absorbance at 450 nm": 2}
{"binder": "B4", "ELISA absorbance at 450 nm": 2.4}
{"binder": "B8", "ELISA absorbance at 450 nm": 1.9}
{"binder": "B9", "ELISA absorbance at 450 nm": 2.1}
{"binder": "B10", "ELISA absorbance at 450 nm": 2.1}
{"biological_target": "T1, 100 aa-long synthetic MUC1 peptide (…)5", "assay": "ELISA titration on coated 100-mer peptide, EC50 approximated", "from_the_text": "as §1", "units": {"EC50": "ng/mL"}}
{"binder": "B11", "EC50": 4}
{"binder": "B5", "EC50": 11}
{"binder": "B6", "EC50": 2}
{"binder": "B12", "EC50": 4}
{"binder": "B7", "EC50": 4}
{"binder": "B13", "EC50": 10}
{"binder": "B14", "EC50": 4}
{"binder": "B15", "EC50": 2}
{"binder": "B16", "EC50": 2}
{"binder": "B17", "EC50": 5}
{"binder": "B8", "EC50": 4}
{"binder": "B9", "EC50": 7}
{"binder": "B10", "EC50": 11}
{"binder": "B18", "EC50": 12}
{"binder": "B19", "EC50": 100}
{"biological_target": "T4, SEQ ID NO: 346 glycopeptide with TF-antigen at Thr4 and Thr9", "T4 construct": "also called T4^TF/T9^TF", "T4 peptide": "HGVT(Galβ1‑3GalNAc)SAPDT(Galβ1‑3GalNAc)RPAPGSTAPP", "assay": "ELISA on coated glycopeptide, antibody 0.01 mg/ml, mean of 3", "from_the_text": "as §2", "units": {"ELISA absorbance at 450 nm": "absorbance"}}
{"binder": "B8", "ELISA absorbance at 450 nm": 1.9}
{"binder": "B9", "ELISA absorbance at 450 nm": 2.3}
{"binder": "B10", "ELISA absorbance at 450 nm": 2.2}
{"biological_target": "T5, SEQ ID NO: 346 glycopeptide with TF-antigen at Ser5 (not fully specified (residue 5))", "T5 construct": "also called S5^TF", "T5 peptide": "HGVTSAPDTRPAPGSTAPP", "assay": "ELISA on coated glycopeptide, antibody 0.01 mg/ml, mean of 3", "from_the_text": "as §2", "units": {"ELISA absorbance at 450 nm": "absorbance"}}
{"binder": "B5", "ELISA absorbance at 450 nm": 1.3}
{"binder": "B6", "ELISA absorbance at 450 nm": 2.1}
{"binder": "B7", "ELISA absorbance at 450 nm": 2.1}
{"binder": "B3", "ELISA absorbance at 450 nm": 2.4}
{"binder": "B4", "ELISA absorbance at 450 nm": 2.7}
{"binder": "B8", "ELISA absorbance at 450 nm": 2.1}
{"binder": "B9", "ELISA absorbance at 450 nm": 2.2}
{"binder": "B10", "ELISA absorbance at 450 nm": 2.1}
{"biological_target": "T6, SEQ ID NO: 346 glycopeptide with TF-antigen at Thr9", "T6 construct": "also called T9^TF", "T6 peptide": "HGVTSAPDT(Galβ1‑3GalNAc)RPAPGSTAPP", "assay": "ELISA on coated glycopeptide, antibody 0.01 mg/ml, mean of 3", "from_the_text": "as §2", "units": {"ELISA absorbance at 450 nm": "absorbance"}}
{"binder": "B8", "ELISA absorbance at 450 nm": 1.9}
{"binder": "B9", "ELISA absorbance at 450 nm": 2.3}
{"binder": "B10", "ELISA absorbance at 450 nm": 2.1}
{"biological_target": "T7, SEQ ID NO: 346 glycopeptide with TF-antigen at Thr4", "T7 construct": "also called T4^TF", "T7 peptide": "HGVT(Galβ1‑3GalNAc)SAPDTRPAPGSTAPP", "assay": "ELISA on coated glycopeptide, antibody 0.01 mg/ml, mean of 3", "from_the_text": "as §2", "units": {"ELISA absorbance at 450 nm": "absorbance"}}
{"binder": "B6", "ELISA absorbance at 450 nm": 1.6}
{"binder": "B7", "ELISA absorbance at 450 nm": 1.6}
{"binder": "B3", "ELISA absorbance at 450 nm": 1.7}
{"binder": "B4", "ELISA absorbance at 450 nm": 1.5}
{"binder": "B8", "ELISA absorbance at 450 nm": 2}
{"binder": "B9", "ELISA absorbance at 450 nm": 2.2}
{"binder": "B10", "ELISA absorbance at 450 nm": 2.1}
{"biological_target": "T8, SEQ ID NO: 346 glycopeptide with TF-antigen at Thr16", "T8 construct": "also called T16^TF", "T8 peptide": "HGVTSAPDTRPAPGST(Galβ1‑3GalNAc)APP", "assay": "ELISA on coated glycopeptide, antibody 0.01 mg/ml, mean of 3", "from_the_text": "as §2", "units": {"ELISA absorbance at 450 nm": "absorbance"}}
{"binder": "B5", "ELISA absorbance at 450 nm": 2.2}
{"binder": "B6", "ELISA absorbance at 450 nm": 2.4}
{"binder": "B7", "ELISA absorbance at 450 nm": 2.5}
{"binder": "B3", "ELISA absorbance at 450 nm": 2.5}
{"binder": "B4", "ELISA absorbance at 450 nm": 2.5}
